Reference: US9623039B2, “Treatment and prevention of pathological conditions using iduna related techniques and compositions” (VALTED, LLC, priority 2010, dated 2017)

Tests used:
AIF = experiment: NMDA-induced AIF translocation in cortical neurons; type: cell-based, mouse; details: excitotoxic NMDA
Text: Parthanatos involves the translocation of apoptosis inducing factor (AIF) from the mitochondria to the nucleus following NMDA excitotoxicity. AIF translocation following excitotoxic NMDA treatment was monitored by immunohistochemistry and confocal microscopy (FIG. 50) and by immunoblot analysis of nuclear and mitochondrial subcellular fractions (FIG. 51).

MCF7 cells [1] = experiment: Determination of apurinic/apyrimidinic (AP) sites; type: cell-based, human; details: 1 h
Method: Determination of apurinic/apyrimidinic (AP) sites. The amount of AP sites in genomic DNA was monitored by a DNA damage quantification kit (BioVision). Briefly, cells were treated with either DMSO or 500 μM MNNG for 15 min, and then replaced with normal growth media. After 1 h, cells were scraped and harvested at 500×g for 5 min and washed once with PBS. Genomic DNA was isolated using a Biovision Genomic DNA Isolation Kit (BioVision) and then AP sites on the 0.5 μg of genomic DNA was labeled with biotin by the Aldehyde Reactive Probe (ARP) reagent (supplied with the DNA damage quantification kit) for 1 h at 37° C. To precipitate the biotin-tagged DNA, sample was mixed with TE buffer containing 2% glycogen and then sequentially incubated with ice cold 70% ethanol for 30 min at −20° C. […] To determine of the number of AP sites in DNA, samples were dissolved in TE buffer and then transferred into 96 well plate with DNA binding buffer (supplied with the DNA damage quantification kit). After 12 h, samples were washed five times with DNA washing buffer (supplied with the DNA damage quantification kit) and then biotin labeled AP sites were quantified using an avidin-biotin assay. Each sample and standards (supplied with a DNA damage quantification kit) were run in triplicate and the OD was measured at 650 nm using a 96-well plate reader (SpectraMax Plus384 Microplate Reader).

primary cortical neurons = experiment: Mitochondrial membrane potential (TMRM live imaging); type: cell-based, mouse; details: TMRM fluorescence, NMDA 500 μM
Method: Mitochondrial Membrane Potential (Δψm): TMRM was used to determine Δψm. Mouse neuronal cultures were loaded with TMRM (100 nM) for 20 min. Thereafter, live-cell imaging was captured using LSM 510 Live Confocal microscope (Carl Zeiss, Germany) for 20 minutes and fluorescence values for TMRM were calculated using LSM 510 confocal software (Carl Zeiss). Following 50-100 seconds base-line stabilization, NMDA (500 μM for 5 min) was directly perfused during image acquisition on the confocal microscopic stage using a peristaltic pump (Gilson). Live images were acquired at an interval of 20 s using a low laser power to avoid excessive bleaching. Due to spectral overlap with GFP, plasma membrane potential could not be determined.

MCF7 cells [2] = experiment: Alkaline comet assay after γ-irradiation; type: cell-based, human; details: γ-irradiation 2 Gy, 15 min
Method: Comet assay. Single cell gel electrophoresis assay was performed by following the manufacturer's instructions. Briefly, established stable cell lines were irradiated (2 Gy) with a Gammacell irradiator and then further incubated for 15 min at 37° C. Cells were collected at 500×g at 4° C. and rinsed twice with ice cold PBS (Ca++ and Mg++ free). A total of 5×10^5 cells were counted and resuspended into PBS (Ca++ and Mg++ free) and then combined with LMAgarose (low melting agarose) at a ratio 1:10 (v/v). Each sample was spotted into CometSlide™ and lysed with buffer (supplied with CometAssay Kit, Trevigen) for 1 h at 4° C. After draining the excess lysis buffer, slides were immersed with alkaline unwinding solution (200 mM NaOH, pH>13, 1 mM EDTA) for 1 h at RT. To the single cell electrophoresis, each comet slide was placed in electrophoresis slide tray with 1 L of alkaline unwinding solution and applied to 21 Volts for 30 min for electrophoresis. After draining the excess electrophoresis buffer, slides were rinsed twice with dH2O and then fixed with 70% ethanol for 5 min. To facilitate single cell observation, slides were dried at 40° C. and stained with SYBR Green I (supplied with CometAssay Kit) for 5 min at 4° C. […] Fifty cells per slide were monitored and the DNA damage was calculated using comet tail length and head diameter parameters.

cortical neurons = experiment: Calcium imaging and mitochondrial Ca2+ uptake; type: cell-based, mouse
Method: Calcium Imaging: Neuronal cells were plated on 17 mm glass cover slips, pre-coated with poly-L-ornithine (0.1 mg/ml). On DIV 14, the cultures were loaded with calcium sensitive dye Fluo-5f (2.5 μM, dissolved in pleuronic acid/DMSO solution) for 45 min at 37° C. and thereafter placed on a thermostatically confocal microscopic stage (Carl Zeiss). HEPES balanced salt solution (HBSS: NaCl 137 mM, KCl 5 mM, HEPES 20 mM, glucose 10 mM, CaCl2 1.4 mM, NaHCO3 3 mM, Na2HPO4 0.6 mM, KH2PO4 0.4 mM, pH 7.4) was superfused to the cultures for 100 s to obtain a steady base-line. NMDA (500 μM for 5 min) was used to induce intracellular calcium influx. Florescence values were monitored at every 10 s and calculated using LSM 510 Meta software and represent the changes in cellular calcium.
Measurements of Mitochondrial Ca^2+-uptake Capacity: Extramitochondrial free Ca^2+ was monitored in the presence of isolated mitochondria or digitonin-permeabilized cells, using an indicator of extramitochondrial free Ca^2+ (Calcium green-5N, Invitrogen). […] Fluorescence was continuously monitored at an excitation/emission at 488/532 nm respectively. […] Ca^2+ uptake was monitored by addition of 50 μM CaCl2 to the assay medium using a Hamilton syringe.

B1: Iduna: novel NMDA-induced cell survival protein, PAR-dependent E3 ligase; 359 amino acids (protein)
chain: MEMAGCGEIDHSINMLPTNKKANESCSNTAPSLTVPECAICLQTCVHPVSLPCKHVFCYLCVKGASWLGKRCALCRQEIPEDFLDKPTLLSPEELKAASRGNGEYAWYYEGRNGWWQYDERTSRELEDAFSKGKKNTEMLIAGFLYVADLENMVQYRRNEHGRRRKIKRDIIDIPKKGVAGLRLDCDTNTVNLARESSADGADSGSAQTGASVQLAVPSSTRPLTSVDGQLTSPVTPSPDAGISLEDSFAHLQLSGDSIAERSHRGEGEEDHESPSSGRVPDTSVEETESDASSDSEDAPVVVAQHSLTQQRPLVPNGNQTVADQSDRSGTDRSVAGGGTMSVNVRSRRPDGQCTVIEV
- AIF translocation to the nucleus (AIF): reduces the translocation of AIF
- increase in AP sites after MNNG (MCF7 cells [1]): completely prevented
- NMDA induced loss of Δψm (primary cortical neurons): prevents NMDA induced loss of Δψm
- comet head diameter and tail length (MCF7 cells [2]): dramatically prevents the reduction in head diameter and increase in tail length
- mitochondrial calcium uptake (cortical neurons; Calcium green-5N): does not interfere with mitochondrial calcium uptake
- NMDA-induced calcium influx (cortical neurons; fluo-5F, NMDA 500 μM 5 min): does not interfere with NMDA-induced intercellular calcium influx
